T1: Cdc25, P04821
T1 sequence (P04821 50-136, looked up): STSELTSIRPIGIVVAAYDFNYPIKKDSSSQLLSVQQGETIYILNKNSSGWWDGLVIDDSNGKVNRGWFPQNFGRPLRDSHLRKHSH

T2: Hse1, P38753
T2 sequence (P38753 208-285, looked up): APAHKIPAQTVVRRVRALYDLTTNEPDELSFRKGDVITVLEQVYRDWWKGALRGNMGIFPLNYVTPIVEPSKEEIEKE

T3: Pin3, Q06449
T3 sequence (Q06449 53-122, looked up): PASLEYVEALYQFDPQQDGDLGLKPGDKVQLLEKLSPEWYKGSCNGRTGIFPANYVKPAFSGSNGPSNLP

T4: Abp1, P15891
T4 sequence (P15891 535-592, looked up): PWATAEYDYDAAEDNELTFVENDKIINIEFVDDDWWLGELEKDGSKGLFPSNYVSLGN

T5: Sla1-3, P32790
T5 sequence (P32790 344-424, looked up): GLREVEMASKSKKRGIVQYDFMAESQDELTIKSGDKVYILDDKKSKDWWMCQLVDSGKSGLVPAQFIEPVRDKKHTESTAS

T6: Cyk3, Q07533
T6 sequence (Q07533 1-83, looked up): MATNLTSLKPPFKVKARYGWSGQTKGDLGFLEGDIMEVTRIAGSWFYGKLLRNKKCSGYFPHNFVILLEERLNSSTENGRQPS

T7: Pex13, P80667
T7 sequence (P80667 295-386, looked up): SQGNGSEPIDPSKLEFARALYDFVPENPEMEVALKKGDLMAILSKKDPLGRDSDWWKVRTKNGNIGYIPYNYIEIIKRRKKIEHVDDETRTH

T8: Bzz1-2, P38822
T8 sequence (P38822 568-633, looked up): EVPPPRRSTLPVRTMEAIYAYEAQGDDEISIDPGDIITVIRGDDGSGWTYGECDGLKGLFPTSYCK

T9: Lsb4, P32793
T9 sequence (P32793 402-468, looked up): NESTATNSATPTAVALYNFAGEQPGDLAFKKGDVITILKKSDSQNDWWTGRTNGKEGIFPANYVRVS

T10: Boi1, P38041
T10 sequence (P38041 1-86, looked up): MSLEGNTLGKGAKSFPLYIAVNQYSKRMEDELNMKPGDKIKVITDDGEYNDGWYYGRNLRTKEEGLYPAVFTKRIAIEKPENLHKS

T11: Nbp2, Q12163
T11 sequence (Q12163 103-180, looked up): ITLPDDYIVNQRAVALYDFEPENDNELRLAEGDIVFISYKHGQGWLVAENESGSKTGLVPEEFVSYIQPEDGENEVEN

T12: Hof1, Q05080
T12 sequence (Q05080 590-669, looked up): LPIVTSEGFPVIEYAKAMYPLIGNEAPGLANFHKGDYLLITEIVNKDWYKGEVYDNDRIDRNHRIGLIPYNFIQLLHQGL

T13: Bud14, P27637
T13 sequence (P27637 247-328, looked up): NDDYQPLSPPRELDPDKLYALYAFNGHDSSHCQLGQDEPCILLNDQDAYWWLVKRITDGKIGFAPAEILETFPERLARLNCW

T14: Fus1, P11710
T14 sequence (P11710 432-512, looked up): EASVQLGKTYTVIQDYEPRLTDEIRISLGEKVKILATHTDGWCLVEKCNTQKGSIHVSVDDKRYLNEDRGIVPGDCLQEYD

T15: Lsb1, P53281
T15 sequence (P53281 45-122, looked up): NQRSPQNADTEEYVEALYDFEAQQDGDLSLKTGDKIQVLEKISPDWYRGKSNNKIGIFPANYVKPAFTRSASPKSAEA

T16: Bbc1, P47068
T16 sequence (P47068 1-78, looked up): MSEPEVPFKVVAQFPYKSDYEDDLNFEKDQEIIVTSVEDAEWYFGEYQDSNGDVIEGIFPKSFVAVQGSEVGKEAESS

T17: Sla1-2, P32790
T17 sequence (P32790 60-140, looked up): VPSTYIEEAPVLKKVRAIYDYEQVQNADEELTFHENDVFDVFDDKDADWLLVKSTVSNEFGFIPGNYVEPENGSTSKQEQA

T18: Boi2, P39969
T18 sequence (P39969 32-116, looked up): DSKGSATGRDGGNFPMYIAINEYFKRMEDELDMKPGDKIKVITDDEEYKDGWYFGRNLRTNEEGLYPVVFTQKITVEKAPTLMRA

T19: Myo5, Q04439
T19 sequence (Q04439 1072-1160, looked up): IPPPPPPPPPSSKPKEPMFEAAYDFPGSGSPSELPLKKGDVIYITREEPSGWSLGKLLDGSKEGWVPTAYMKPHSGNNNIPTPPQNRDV

T20: Bzz1-1, P38822
T20 sequence (P38822 478-572, looked up): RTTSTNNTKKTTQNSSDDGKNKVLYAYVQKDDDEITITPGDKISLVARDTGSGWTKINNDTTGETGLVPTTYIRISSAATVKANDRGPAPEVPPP

T21: Lsb3, P43603
T21 sequence (P43603 385-451, looked up): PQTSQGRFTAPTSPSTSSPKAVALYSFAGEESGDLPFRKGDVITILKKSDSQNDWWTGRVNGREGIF


What was measured:
Assay in all cases: SPOT array
Cdc25, P04821 = target: T1, Cdc25, P04821; settings: median of control spots 969
Hse1, P38753 = target: T2, Hse1, P38753; settings: median of control spots 1727
Pin3, Q06449 = target: T3, Pin3, Q06449; settings: median of control spots 2171
Abp1, P15891 = target: T4, Abp1, P15891; settings: median of control spots 935
Sla1-3, P32790 = target: T5, Sla1-3, P32790; settings: median of control spots 5475
GST = settings: median of control spots 978
Bem1-2, P29366 = settings: median of control spots 4347
Bem1-2, P29366, sequence (P29366 139-227): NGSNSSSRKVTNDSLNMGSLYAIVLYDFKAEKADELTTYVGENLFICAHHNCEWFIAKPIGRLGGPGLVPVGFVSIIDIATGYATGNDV

Cyk3, Q07533 = target: T6, Cyk3, Q07533; settings: median of control spots 1451
Pex13, P80667 = target: T7, Pex13, P80667; settings: median of control spots 1341
Bzz1-2, P38822 = target: T8, Bzz1-2, P38822; settings: median of control spots 4538
Lsb4, P32793 = target: T9, Lsb4, P32793; settings: median of control spots 397
Rvs167, P39743 = settings: median of control spots 2707
Rvs167, P39743, sequence (P39743 419-482): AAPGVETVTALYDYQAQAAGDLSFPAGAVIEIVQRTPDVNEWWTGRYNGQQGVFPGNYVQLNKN

Boi1, P38041 = target: T10, Boi1, P38041; settings: median of control spots 1162
Nbp2, Q12163 = target: T11, Nbp2, Q12163; settings: median of control spots 357
Hof1, Q05080 = target: T12, Hof1, Q05080; settings: median of control spots 4086
Myo3, P36006 = settings: median of control spots 468
Sho1, P40073 = settings: median of control spots 1148
Sho1, P40073, sequence (P40073 287-367): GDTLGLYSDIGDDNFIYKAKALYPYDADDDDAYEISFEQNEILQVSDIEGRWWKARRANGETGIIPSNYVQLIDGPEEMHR

Bud14, P27637 = target: T13, Bud14, P27637; settings: median of control spots 956
Bem1-1, P29366 = settings: median of control spots 4282
Bem1-1, P29366, sequence (P29366 55-141): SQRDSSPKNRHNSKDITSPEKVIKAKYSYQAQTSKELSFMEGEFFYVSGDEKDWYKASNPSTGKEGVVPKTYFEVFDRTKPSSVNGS

Fus1, P11710 = target: T14, Fus1, P11710; settings: median of control spots 1200
Lsb1, P53281 = target: T15, Lsb1, P53281; settings: median of control spots 388
Bbc1, P47068 = target: T16, Bbc1, P47068; settings: median of control spots 796
Sla1-2, P32790 = target: T17, Sla1-2, P32790; settings: median of control spots 712
Boi2, P39969 = target: T18, Boi2, P39969; settings: median of control spots 1161
Myo5, Q04439 = target: T19, Myo5, Q04439; settings: median of control spots 471
Bzz1-1, P38822 = target: T20, Bzz1-1, P38822; settings: median of control spots 4446
Lsb3, P43603 = target: T21, Lsb3, P43603; settings: median of control spots 406

Row | SPOT intensity (Cdc25, P04821) | SPOT intensity (Hse1, P38753) | SPOT intensity (Pin3, Q06449) | SPOT intensity (Abp1, P15891) | SPOT intensity (Sla1-3, P32790) | SPOT intensity (GST) | SPOT intensity (Bem1-2, P29366) | SPOT intensity (Cyk3, Q07533) | SPOT intensity (Pex13, P80667) | SPOT intensity (Bzz1-2, P38822) | SPOT intensity (Lsb4, P32793) | SPOT intensity (Rvs167, P39743) | SPOT intensity (Boi1, P38041) | SPOT intensity (Nbp2, Q12163) | SPOT intensity (Hof1, Q05080) | SPOT intensity (Myo3, P36006) | SPOT intensity (Sho1, P40073) | SPOT intensity (Bud14, P27637) | SPOT intensity (Bem1-1, P29366) | SPOT intensity (Fus1, P11710) | Binder | further results
1 | 172 | 59 | 27 | 57 | 45 | 0 | 11 | 2 | 19 | 4 | 3 | 0 | 7 | 42 | 89 | 10 | 66 | 50 | 0 | 81 | RLSRLLLSLPPESFT | SPOT intensity (Lsb1, P53281): 6; SPOT intensity (Bbc1, P47068): 47; SPOT intensity (Sla1-2, P32790): 0; SPOT intensity (Boi2, P39969): 2; SPOT intensity (Myo5, Q04439): 0; SPOT intensity (Bzz1-1, P38822): 0; SPOT intensity (Lsb3, P43603): 0
2 | 30 | 25 | 12 | 235 | 379 | 4 | 65 | 4 | 14 | 77 | 49 | 4 | 8 | 240 | 6 | 51 | 178 | 15 | 0 | 14 | RKNRAPPQRPRFNRE | SPOT intensity (Lsb1, P53281): 390; SPOT intensity (Bbc1, P47068): 362; SPOT intensity (Sla1-2, P32790): 4; SPOT intensity (Boi2, P39969): 3; SPOT intensity (Myo5, Q04439): 5; SPOT intensity (Bzz1-1, P38822): 8; SPOT intensity (Lsb3, P43603): 30
3 | 40 | 23 | 9 | 298 | 353 | 4 | 104 | 12 | 10 | 91 | 75 | 2 | 12 | 490 | 8 | 61 | 262 | 18 | 0 | 26 | RKNRAPPQRPRFNRD | SPOT intensity (Lsb1, P53281): 670; SPOT intensity (Bbc1, P47068): 535; SPOT intensity (Sla1-2, P32790): 3; SPOT intensity (Boi2, P39969): 7; SPOT intensity (Myo5, Q04439): 3; SPOT intensity (Bzz1-1, P38822): 11; SPOT intensity (Lsb3, P43603): 68
4 | 3 | 0 | 2 | 9 | 12 | 0 | 0 | 0 | 7 | 0 | 1 | 0 | 0 | 139 | 0 | 277 | 0 | 0 | 0 | 0 | APKREAPKPPANTSP | SPOT intensity (Lsb1, P53281): 0; SPOT intensity (Bbc1, P47068): 56; SPOT intensity (Sla1-2, P32790): 0; SPOT intensity (Boi2, P39969): 0; SPOT intensity (Myo5, Q04439): 126; SPOT intensity (Bzz1-1, P38822): 10; SPOT intensity (Lsb3, P43603): 0
5 | 10 | 22 | 25 | 27 | 21 | 0 | 43 | 1 | 11 | 7 | 2 | 0 | 2 | 0 | 11 | 1 | 28 | 4 | 9 | 233 | IHTRRPSSTSQYLIR | SPOT intensity (Lsb1, P53281): 0; SPOT intensity (Bbc1, P47068): 6; SPOT intensity (Sla1-2, P32790): 0; SPOT intensity (Boi2, P39969): 0; SPOT intensity (Myo5, Q04439): 1; SPOT intensity (Bzz1-1, P38822): 0; SPOT intensity (Lsb3, P43603): 0
6 | 13 | 0 | 14 | 83 | 6 | 0 | 3 | 1 | 3 | 1 | 7 | 0 | 0 | 85 | 0 | 80 | 72 | 8 | 1 | 0 | LKVTPGRRAPTISKI | SPOT intensity (Lsb1, P53281): 0; SPOT intensity (Bbc1, P47068): 17; SPOT intensity (Sla1-2, P32790): 0; SPOT intensity (Boi2, P39969): 2; SPOT intensity (Myo5, Q04439): 6; SPOT intensity (Bzz1-1, P38822): 0; SPOT intensity (Lsb3, P43603): 0
